Test results taken from patent US20250223378A1 (MABCARE THERAPEUTICS, published 2025).

T1: PTK7 on the SK-OV-3 cell line (human ovarian cancer cells) (human, UniProt Q13308 31-1070)
T1 construct: whole, on cells
T1 sequence (looked up): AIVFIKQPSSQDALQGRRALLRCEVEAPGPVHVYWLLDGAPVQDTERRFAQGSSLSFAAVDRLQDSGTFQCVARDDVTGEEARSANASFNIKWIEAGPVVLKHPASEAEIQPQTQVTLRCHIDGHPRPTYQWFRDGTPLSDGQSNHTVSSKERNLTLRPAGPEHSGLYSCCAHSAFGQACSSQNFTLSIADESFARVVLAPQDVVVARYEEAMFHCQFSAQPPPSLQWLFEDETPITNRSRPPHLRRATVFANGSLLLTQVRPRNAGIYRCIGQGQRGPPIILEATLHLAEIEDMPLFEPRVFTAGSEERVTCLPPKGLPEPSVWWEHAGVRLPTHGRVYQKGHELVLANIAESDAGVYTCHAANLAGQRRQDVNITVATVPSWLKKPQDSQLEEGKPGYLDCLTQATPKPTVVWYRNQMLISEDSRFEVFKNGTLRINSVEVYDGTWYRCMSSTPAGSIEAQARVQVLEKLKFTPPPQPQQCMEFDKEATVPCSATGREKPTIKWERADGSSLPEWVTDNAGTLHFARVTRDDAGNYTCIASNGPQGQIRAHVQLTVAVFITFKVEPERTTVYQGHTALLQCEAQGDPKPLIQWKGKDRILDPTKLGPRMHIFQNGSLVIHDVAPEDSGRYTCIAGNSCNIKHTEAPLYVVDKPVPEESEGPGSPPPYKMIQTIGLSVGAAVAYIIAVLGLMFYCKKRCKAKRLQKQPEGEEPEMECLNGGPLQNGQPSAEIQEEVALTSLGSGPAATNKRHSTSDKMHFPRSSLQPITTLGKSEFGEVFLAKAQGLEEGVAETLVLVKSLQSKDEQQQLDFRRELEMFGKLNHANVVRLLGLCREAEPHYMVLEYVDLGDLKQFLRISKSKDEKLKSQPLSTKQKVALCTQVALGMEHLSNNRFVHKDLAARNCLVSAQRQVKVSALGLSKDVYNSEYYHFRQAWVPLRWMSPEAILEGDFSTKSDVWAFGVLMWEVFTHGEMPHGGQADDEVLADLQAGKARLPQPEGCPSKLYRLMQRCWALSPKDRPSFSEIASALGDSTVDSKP

T2: monkey PTK7 protein (Catalog No. PT7-C52H3, Acrobiosystems) (monkey, UniProt A0A2K5VNQ6 31-704)
T2 construct: Bought protein; not shown: The vendor's purification tag, probably a C-terminal His tag
T2 sequence: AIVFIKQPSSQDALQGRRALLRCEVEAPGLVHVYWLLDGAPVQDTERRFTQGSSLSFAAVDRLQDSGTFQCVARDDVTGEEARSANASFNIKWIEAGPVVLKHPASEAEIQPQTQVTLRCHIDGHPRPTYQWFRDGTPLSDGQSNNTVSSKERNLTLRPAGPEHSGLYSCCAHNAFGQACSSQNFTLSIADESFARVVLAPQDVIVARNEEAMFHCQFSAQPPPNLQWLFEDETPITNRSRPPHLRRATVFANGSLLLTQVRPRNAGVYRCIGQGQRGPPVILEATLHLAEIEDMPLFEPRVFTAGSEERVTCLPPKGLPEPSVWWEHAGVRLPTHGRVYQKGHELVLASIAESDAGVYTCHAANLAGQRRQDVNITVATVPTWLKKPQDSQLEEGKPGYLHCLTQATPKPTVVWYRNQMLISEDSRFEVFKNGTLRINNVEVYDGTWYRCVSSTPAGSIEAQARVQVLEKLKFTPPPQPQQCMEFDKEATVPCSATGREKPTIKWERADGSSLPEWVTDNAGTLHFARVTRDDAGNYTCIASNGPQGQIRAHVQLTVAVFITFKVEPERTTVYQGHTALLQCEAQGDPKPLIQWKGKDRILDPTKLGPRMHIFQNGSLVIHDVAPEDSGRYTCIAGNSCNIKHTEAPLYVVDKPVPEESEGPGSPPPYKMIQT

T3: murine PTK7 protein (Catalog No. PT7-M52H3, Acrobiosystems) (murine, UniProt Q8BKG3 23-696)
T3 construct: Bought protein; also called mouse PTK7
T3 sequence (looked up): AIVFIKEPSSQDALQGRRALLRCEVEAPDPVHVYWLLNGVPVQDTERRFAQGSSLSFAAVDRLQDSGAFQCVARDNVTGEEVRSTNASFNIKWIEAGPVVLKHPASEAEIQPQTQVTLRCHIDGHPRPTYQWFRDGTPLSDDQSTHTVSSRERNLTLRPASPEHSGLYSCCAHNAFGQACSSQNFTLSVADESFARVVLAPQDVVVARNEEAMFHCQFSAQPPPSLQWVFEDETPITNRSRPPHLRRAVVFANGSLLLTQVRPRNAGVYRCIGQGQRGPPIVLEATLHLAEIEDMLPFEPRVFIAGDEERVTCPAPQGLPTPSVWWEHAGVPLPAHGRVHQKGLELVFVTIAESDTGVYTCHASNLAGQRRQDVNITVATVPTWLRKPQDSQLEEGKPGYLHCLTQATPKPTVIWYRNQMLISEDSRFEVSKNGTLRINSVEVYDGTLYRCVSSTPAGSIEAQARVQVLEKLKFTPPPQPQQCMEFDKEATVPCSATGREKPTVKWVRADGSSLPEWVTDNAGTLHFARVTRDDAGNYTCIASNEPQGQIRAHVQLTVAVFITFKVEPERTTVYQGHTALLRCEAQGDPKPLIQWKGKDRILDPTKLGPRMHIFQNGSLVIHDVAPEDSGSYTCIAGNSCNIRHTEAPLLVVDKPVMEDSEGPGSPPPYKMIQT

T4: Human PTK7 protein (Catalog No. PT7-H52H3, Acrobiosystems) (human, UniProt Q13308 31-704)
T4 construct: Bought protein
T4 sequence (looked up): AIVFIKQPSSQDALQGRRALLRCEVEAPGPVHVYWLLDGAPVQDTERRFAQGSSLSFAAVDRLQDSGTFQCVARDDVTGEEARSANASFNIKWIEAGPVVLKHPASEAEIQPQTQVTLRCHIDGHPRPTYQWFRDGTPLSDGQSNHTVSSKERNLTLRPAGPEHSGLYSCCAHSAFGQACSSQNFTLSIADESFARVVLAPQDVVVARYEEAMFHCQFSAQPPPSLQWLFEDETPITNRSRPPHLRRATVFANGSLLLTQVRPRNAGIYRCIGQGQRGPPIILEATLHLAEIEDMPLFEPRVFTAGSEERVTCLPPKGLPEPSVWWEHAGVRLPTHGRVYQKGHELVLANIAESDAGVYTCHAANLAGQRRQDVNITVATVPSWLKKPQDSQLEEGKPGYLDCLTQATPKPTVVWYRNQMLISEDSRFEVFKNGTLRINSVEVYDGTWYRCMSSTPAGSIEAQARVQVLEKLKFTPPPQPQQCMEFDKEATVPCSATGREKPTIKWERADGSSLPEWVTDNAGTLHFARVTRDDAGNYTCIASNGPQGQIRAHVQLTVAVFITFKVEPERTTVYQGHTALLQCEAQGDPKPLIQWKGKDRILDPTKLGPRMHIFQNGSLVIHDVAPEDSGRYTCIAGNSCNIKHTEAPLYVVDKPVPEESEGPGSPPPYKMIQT


Experiments:
[1] = target: T1, PTK7 on the SK-OV-3 cell line (human …); experiment: flow cytometry on SK-OV-3 cells, FITC goat anti-human secondary antibody, MFI
Method: SK-OV-3 (human ovarian cancer cells, ATCC, Catalog No. HTB-77) was digested with trypsin in a culture dish, and the digested cells were centrifuged at 1000 rpm for 5 min and then blocked with 10% goat serum (purchased from Beijing Solarbio Science & Technology Co. Ltd., Item No. SL038) for 30 min. The anti-PTK7 antibodies as prepared in Example 2 of the present disclosure were diluted in a 3-fold gradient with a starting concentration of 500 nM. At the end of dilution, the gradient diluted anti-PTK7 antibodies were added to the cells, incubated for 1 h, and washed twice with PBS. Then, FITC-labeled goat anti-human secondary antibody (purchased from Jackson ImmunoResarch, Item No. 109-545-008) was added at 1:500, incubated for 1 h, and finally washed twice with PBS. The results were analyzed by flow cytometry.

[2] = target: T2, monkey PTK7 protein (Catalog No. …); experiment: ELISA, PTK7 protein immobilized on the plate, peroxidase anti-human IgG, OD450
Method: (§1) Human PTK7 protein (Catalog No. PT7-H52H3, Acrobiosystems), monkey PTK7 protein (Catalog No. PT7-C52H3, Acrobiosystems), and murine PTK7 protein (Catalog No. PT7-M52H3, Acrobiosystems) were incubated at 4° C. overnight and immobilized onto a 96-well plate. The plate was then blocked by incubating at 37° C. with 1% BSA in PBS for 1 h. After blocking, the plate was washed 3 times with PBST (PBS containing 0.05% Tween 20). Serial dilutions of anti-PTK7 antibody as prepared in Example 2 of the present disclosure was prepared in a binding buffer (PBS containing 0.05% Tween20 and 0.5% BSA) and incubated with the immobilized proteins at 37° C. for 1 h. After binding, the plate was washed 3 times with PBST, incubated with peroxidase-labeled donkey anti-human IgG (Jackson ImmunoResearch) diluted at 1/15,000 in the binding buffer at 37° C. for 1 h, washed again, developed with TMB and terminated with 1M H₂SO₄. The absorbance at 450 nm-620 nm was measured.

[3] = target: T3, murine PTK7 protein (Catalog No. …); experiment: as above
Method: as §1

[4] = target: T4, Human PTK7 protein (Catalog No. …); experiment: as above
Method: as §1

Binder	EC50 [1] [pM]	EC50 [2] [pM]	binding result [3]	EC50 [4] [pM]
humanized PTK7 antibody Hu13H3L3 (antibody, V domains shown) VH: QVQLVQSGAEVKKPGASVKISCKGSGYTFTDYGMHWLKQAPGQGLEWIGVISPYYGDVNYNQKFQGRATMTVDKSISTAYMELSRLRSDDTAVYYCARGMGYWGQGTLVTVSS VL: DVQITQSPSFLSASVGDRVTITCRASQSISKYLAWYQQKPGKAPKLLIYSGSTLQSGVPSRFSGSGSGTEFTLTISSLQPEDFAMYYCQQHNEYPWTFGQGTKVEIK	156			
humanized PTK7 antibody Hu13H2L0 (antibody, V domains shown) VH: QVQLVQSGAEVKKPGASVKVSCKGSGYTFTDYGMHWLRQAPGQGLEWMGVISPYYGDVNYNQKFQGRVTMTRDKSISTAYMELSRLRSDDTVVYYCARGMGYWGQGTLVTVSS VL: DIQLTQSPSFLSASVGDRVTITCRASQSISKYLAWYQQKPGKAPKLLIYSGSTLQSGVPSRFSGSGSGTEFTLTISSLQPEDFATYYCQQHNEYPWTFGQGTKVEIK	163			
humanized PTK7 antibody Hu13H3L0 (Ab13) (antibody, V domains shown) VH: QVQLVQSGAEVKKPGASVKISCKGSGYTFTDYGMHWLKQAPGQGLEWIGVISPYYGDVNYNQKFQGRATMTVDKSISTAYMELSRLRSDDTAVYYCARGMGYWGQGTLVTVSS VL: DIQLTQSPSFLSASVGDRVTITCRASQSISKYLAWYQQKPGKAPKLLIYSGSTLQSGVPSRFSGSGSGTEFTLTISSLQPEDFATYYCQQHNEYPWTFGQGTKVEIK	190			
humanized PTK7 antibody Hu13H3L5 (antibody, V domains shown) VH: QVQLVQSGAEVKKPGASVKISCKGSGYTFTDYGMHWLKQAPGQGLEWIGVISPYYGDVNYNQKFQGRATMTVDKSISTAYMELSRLRSDDTAVYYCARGMGYWGQGTLVTVSS VL: DVQITQSPSYLSASPGDRITITCRASQSISKYLAWYQQKPGKANKLLIYSGSTLQSGVPSRFSGSGSGTEFTLTISSLQPEDFAMYYCQQHNEYPWTFGQGTKVEIK	161			
humanized PTK7 antibody Hu13H2L3 (antibody, V domains shown) VH: QVQLVQSGAEVKKPGASVKVSCKGSGYTFTDYGMHWLRQAPGQGLEWMGVISPYYGDVNYNQKFQGRVTMTRDKSISTAYMELSRLRSDDTVVYYCARGMGYWGQGTLVTVSS VL: DVQITQSPSFLSASVGDRVTITCRASQSISKYLAWYQQKPGKAPKLLIYSGSTLQSGVPSRFSGSGSGTEFTLTISSLQPEDFAMYYCQQHNEYPWTFGQGTKVEIK	213			
human-murine chimeric PTK7 antibody ch13 (antibody, V domains shown) VH: QVQLQQSGAELVRPGVSVKISCKGSGYTFTDYGMHWLKQSHAKSLEWIGVISPYYGDVTYNQKFKGKATMTVDKSSSTAYMELARLTSEDSAIYYCARGMGYWGQGTSVTVSS VL: DVQITQSPSYLAASPGETITINCRASQSISKYLAWYQEKPGKTNKLLIYSGSTLQSGIPSRFSGSGSGTDFTLTISSLEPEDFAMYYCQQHNEYPWTFGGGTKLEIK	189	47.2	no binding	57.1
